“Also recorded” adds a separate entry of the source.

Experiment [1] relates to mouse E17 cortical neurons. As to the kind of experiment: AP-PGRN binding to mouse cortical neurons (wild type, sortilin +/- and -/-). As to conditions: 100 nM unlabeled competitor against 5 nM AP-PGRN, 1 hr preincubation. As for the experimental part:
(§1) Rat (Sprague-Dawley) cortical neurons were isolated from E18 embryos and cultured in vitro for 3-21 days. Cultures were maintained in Neurobasal-A medium supplemented with B27, GLUTAMAX™ (2 mM), sodium pyruvate (1 mM), penicillin, and streptomycin. The binding of 10 nM AP-PGRN or 10 nM AP was detected as a dark reaction product produced by alkaline phosphatase (AP). Binding was measured as follows. The AP tagged ligand (in NBA) was incubated with the cortical neurons for 1 hr at 4° C., washed three times with HBH buffer, fixed with formaldehyde, and after washing again with HBH the neurons were incubated in a 67° C. oven to inactivate the endogenous AP. The tagged AP was then visualized using AP substrate 5-bromo-4-chloro-3-indolyl phosphate/nitro blue tetrazolium, which results in a dark precipitate. […] The addition of 100 nM Flag-PGRN displaced 10 nM AP-PGRN (FIG. 1C, middle panel).
Binding was measured according to the methods described above by preincubating 100 nM PGRN with the cortical neurons for 1 hr and using a 5 nM AP-PGRN and 100 nM untagged PGRN mixture. […]
Gene-targeted sortilin −/− and +/− mice from Anders Nykjaer, M.D., Ph.D., Aarhus University, Aarhus, Denmark, were used to obtain cultures of cortical neurons. The binding of 2 nM AP-PGRN to cortical neurons isolated from sortilin −/− (FIG. 3B, left panel) and +/− (FIG. 3B, right panel) mice was evaluated. […]

The next experiment deals with T1, sortilin (Homo sapiens, UniProt Q99523).
T1 sequence (Q99523 78-831): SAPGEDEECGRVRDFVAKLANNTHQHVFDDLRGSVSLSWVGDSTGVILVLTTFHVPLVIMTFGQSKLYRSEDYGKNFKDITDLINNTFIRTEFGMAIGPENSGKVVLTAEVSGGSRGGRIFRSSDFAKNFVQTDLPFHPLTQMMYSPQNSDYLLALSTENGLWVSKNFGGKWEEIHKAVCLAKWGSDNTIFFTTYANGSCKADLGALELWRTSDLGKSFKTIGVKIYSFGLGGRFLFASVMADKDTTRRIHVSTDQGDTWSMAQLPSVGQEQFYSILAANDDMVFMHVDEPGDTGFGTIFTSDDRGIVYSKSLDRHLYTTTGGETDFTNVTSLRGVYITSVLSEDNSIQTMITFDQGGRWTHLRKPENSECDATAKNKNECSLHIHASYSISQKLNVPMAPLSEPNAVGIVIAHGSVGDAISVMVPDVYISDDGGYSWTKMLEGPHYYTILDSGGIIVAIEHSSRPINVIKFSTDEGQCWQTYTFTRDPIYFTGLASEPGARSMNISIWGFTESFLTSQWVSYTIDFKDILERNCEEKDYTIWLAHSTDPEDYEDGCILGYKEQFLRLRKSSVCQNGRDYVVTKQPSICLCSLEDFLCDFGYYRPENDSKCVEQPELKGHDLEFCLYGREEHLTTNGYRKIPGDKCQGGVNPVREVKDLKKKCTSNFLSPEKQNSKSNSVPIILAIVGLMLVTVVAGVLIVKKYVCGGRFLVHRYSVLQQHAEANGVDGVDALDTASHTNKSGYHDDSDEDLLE
Kind of experiment: PGRN binding to sortilin of human origin. As to conditions: data not shown. An excerpt: The human SorLA expression vector was provided by Anders Nykjaer, M.D., Ph.D., Aarhus University, Aarhus, Denmark (Jacobsen, L., et al., J. Biol. Chem. 276:22788-22796 (2001); Gliemann, J., et al., Biochem J. 381:203-212 (2004); GenBank Accession No. U60975), and the mouse SorCS1 expression vector in pCMV-Sport6 was obtained from Open Biosystems (GenBank Accession No. BC007486). […] A fragment of PGRN, termed PGRN-E in the literature, binds to sortilin with the same affinity as does full length PGRN (data not shown).

For experiment [2], the system named is cortical neurons from E18 rat embryo cerebral cortex. As to the kind of experiment: Apoptosis assay (cleaved caspase 3) in cortical neuron cultures. It is filed as cell-based. The note with it: 100 nM, 36 hours, vs vehicle; 7 days in vitro. Here is the method:
In order to examine the PGRN-Sort1 interaction and the effects of PGRN on cerebral cortical cultures, apoptosis assays were performed. Cultures of cortical neurons were established from E18 rat embryo cerebral cortex, as described above, and maintained for 7 days in vitro. Then, the cells were exposed to vehicle or 100 nM purified PGRN protein for 36 hours. The cultures were maintained as mentioned above, and Flag-PGRN diluted in PBS or PBS vehicle were incubated in the cultures for 36 h. Thereafter, the cells were fixed with FA 15 mts and stained with anti-cleaved caspase 3 antibody (Cell Signaling) to detect apoptotic cells (FIG. 6A; shown in white) and with DAPI to detect all nuclei (FIG. 6A; shown in gray). […] These finding may relate indirectly to one study of immortalized cells linking PGRN to caspase-mediated cleavage of TDP43 (Zhang, Y. J., et al., J. Neurosci. 27:10530-10534 (2007)).

The test system of experiment [3] is Cortical neurons isolated from E18 rat embryos. As to the kind of experiment: Neurite outgrowth assay in cortical neurons. The experiment is classed as cell-based. As to conditions: 100 nM, 1 day in vitro, vs vehicle. Here is the method:
To further examine the PGRN-Sort1 interaction, neurite outgrowth assays were performed. Cortical neurons were isolated from E18 rat embryos and cultured for 1 day in vitro with or without 100 nM purified Flag-PGRN protein, as described above. Neurites were then visualized with an anti-Beta III tubulin (Promega) using an automated image acquisition. Neurite outgrowth analysis was done using ImageXpress (Molecular Devices), and average neurite length was calculated. […] Although this finding differs from a recent report (Van Damme, P., et al., J. Cell Biol. 181:37-41 (2008)), it is possible that cell survival is the primary action of PGRN, and any outgrowth effect is secondary.

The target of experiment [4] is T2, sortilin-1 (Sort1; PGRN-R) (Mus musculus, UniProt Q6PHU5).
T2 construct: host or cells: COS-7 (ATCC No. CRL-1651)
T2 sequence (Q6PHU5 74-825): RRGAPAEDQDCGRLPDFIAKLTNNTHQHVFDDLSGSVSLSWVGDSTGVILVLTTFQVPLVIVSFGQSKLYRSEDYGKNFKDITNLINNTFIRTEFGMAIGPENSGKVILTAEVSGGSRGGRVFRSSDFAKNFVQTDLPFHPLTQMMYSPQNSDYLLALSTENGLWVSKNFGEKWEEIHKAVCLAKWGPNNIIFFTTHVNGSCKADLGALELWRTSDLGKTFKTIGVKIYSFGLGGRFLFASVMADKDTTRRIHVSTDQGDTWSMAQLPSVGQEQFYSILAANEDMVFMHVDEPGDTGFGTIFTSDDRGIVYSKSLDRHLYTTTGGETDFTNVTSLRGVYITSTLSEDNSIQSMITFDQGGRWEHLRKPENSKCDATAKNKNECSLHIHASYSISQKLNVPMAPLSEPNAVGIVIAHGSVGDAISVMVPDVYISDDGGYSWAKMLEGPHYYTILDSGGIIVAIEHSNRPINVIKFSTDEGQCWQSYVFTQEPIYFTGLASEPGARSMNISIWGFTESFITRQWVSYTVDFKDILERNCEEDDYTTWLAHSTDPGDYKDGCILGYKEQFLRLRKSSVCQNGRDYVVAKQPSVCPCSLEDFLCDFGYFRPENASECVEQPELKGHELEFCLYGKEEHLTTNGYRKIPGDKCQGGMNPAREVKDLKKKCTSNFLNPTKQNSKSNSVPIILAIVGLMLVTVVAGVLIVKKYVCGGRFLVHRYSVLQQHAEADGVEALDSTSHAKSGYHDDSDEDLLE
Kind of experiment: AP-PGRN binding to COS-7 cells transfected with Sort1 cDNA. Here is the method:
as §1
To determine the molecular nature of the neuronal binding site of PGRN, expression cloning experiments utilizing AP-PGRN as a tagged ligand were conducted. COS-7 (ATCC No. CRL-1651) cells were transfected with expression vectors containing mouse cDNAs using FUGENE® 6 according to manufacturer's specifications (Roche). […]

The target in experiment [5] is Rat (Sprague-Dawley) cortical neurons. Kind of experiment: AP-tagged ligand binding to cultured rat cortical neurons. The note with it: saturation analysis, FIG. 1D; read-out: affinity of neuronal binding sites for PGRN. As for the experimental part:
as §1

For a further experiment, the target named is T3, Sort1 (Mus musculus, UniProt Q6PHU5).
T3 construct: Brain lysate was prepared from mouse brain by homogenization in RIPA buffer; from tissue; host or cells: mouse brain lysate (RIPA buffer)
T3 sequence (Q6PHU5 74-825): T2 sequence (Q6PHU5 74-825)
As to the kind of experiment: Affinity chromatography pull-down of Sort1 from brain lysate. The experiment is classed as binding. As to conditions: wild type brain lysate or extract. Here is the method: For affinity chromatography, glutathione S-transferase (GST) fused to the C-terminal segment of PGRN (amino acids 495 to the end) was produced in E. coli as a 45 kDa protein and then purified on glutathione-sepharose resin. Brain lysate was prepared from mouse brain by homogenization in RIPA buffer and then incubated with the GST-PGRN containing resin. After washing, bound protein was eluted with SDS and analyzed by anti-sortilin immunoblot. […] Thus, it can be unexpectedly concluded from these studies that PGRN and sortilin interact in a ligand/receptor-type complex on the cell surface.

B1: PGRN: progranulin protein; unlabeled/untagged competitor in binding assays, purified Flag-PGRN in Example 2 cultures (protein)
chain: TQCPDGQFCPVACCLDQGGANYSCCNPLLDTWPRITSHHLDGSCQTHGHCPAGYSCLLTVSGTSSCCPFSKGVSCGDGYHCCPQGFHCSADGKSCFQMSDNPLGAVQCPGSQFECPDSATCCIMVDGSWGCCPMPQASCCEDRVHCCPHGASCDLVHTRCVSPTGTHTLLKKFPAQKTNRAVSLPFSVVCPDAKTQCPDDSTCCELPTGKYGCCPMPNAICCSDHLHCCPQDTVCDLIQSKCLSKNYTTDLLTKLPGYPVKEVKCDMEVSCPEGYTCCRLNTGAWGCCPFAKAVCCEDHIHCCPAGFQCHTEKGTCEMGILQVPWMKKVIAPLRLPDPQILKSDTPCDDFTRCPTNNTCCKLNSGDWGCCPIPEAVCCSDNQHCCPQGFTCLAQGYCQKGDTMVAGLEKIPARQTTPLQIGDIGCDQHTSCPVGQTCCPSLKGSWACCQLPHAVCCEDRQHCCPAGYTCNVKARTCEKDVDFIQPPVLLTLGPKVGNVECGEGHFCHDNQTCCKDSAGVWACCPYLKGVCCRDGRHCCPGGFHCSARGTKCLRKKIPRWDMFLRDPVPRPLL
For the molecule B1, the “displacement of AP-PGRN binding” value in experiment [1] is listed as “displaced”; in experiment [4] (100 nM untagged competitor against 5 nM AP-PGRN), “displaceable”. Besides, the “binding to sortilin of human origin” value in the experiment with sortilin is given as “binds”. In addition, the “number of cells positive for cleaved caspase-3” value in experiment [2] was “less”. For the same molecule, the “cortical neurite outgrowth (βIII tubulin)” value in experiment [3] is reported as “No PGRN-induced change; also recorded: no significant difference”. Besides, in experiment [4] (data not shown), the “binding to sortilin of mouse origin” value is listed as “binds”. For the same molecule, the Kd in experiment [5] was approximately 20 nM.

B2: GST-PGRN: glutathione S-transferase (GST) fused to the C-terminal segment of PGRN (amino acids 495 to the end), produced in E. coli (protein)
chain: CEKEVVSAQPATFLARSPHVGVKDVECGEGHFCHDNQTCCRDNRQGWACCPYRQGVCCADRRHCCPAGFRCAARGTKCLRREAPRWDAPLRDPALRQLL
modifications: left off: a dimerising Fc or GST
notes: glutathione S-transferase (GST) fused to the C-terminal segment of PGRN (amino acids 495 to the end), produced in E. coli
As to B2, in the experiment with Sort1, the “pull-down of Sort1 (anti-sortilin immunoblot)” value is on record as “immunoreactive Sort1 band was detected”.
